Measured values from US5948825A, “Microemulsion preparation containing a slightly absorbable substance” (Institute for Advanced Skin Research Inc., priority 1993, dated 1999).

Experiments:
[1] = absorption by the rectum (through the mucous membrane); type: in vivo; conditions: rats; relative to subcutaneous injection (integrated blood concentration over time) = 100%
Protocol: Rats were starved from the day before experiment until there was little feces left in the abdomen. […] Immediately after the injection, the anus was bound with a rubber band to prevent the leakage of the microemulsion. Blood was sampled at specified time intervals and the concentration of the drug in the blood was determined.

[2] = administration into the nasal cavity, closure technique; type: in vivo; conditions: rats; relative to subcutaneous injection (integrated blood concentration over time) = 100%
Description: Rats were anesthetized and medisected in the neck to expose the windpipe and esophagus. Part of the windpipe was incised and a polyethylene tube was inserted into the windpipe to secure the airway, followed by ligation. The nostril and the opening in the incisive caval on the oral cavity side were closed with an adhesive. Part of the esophagus was incised for insertion of a nutrition catheter until its end reached into the nasal cavity. The part of the esophagus into which the nutrition catheter was inserted was ligated. […] Blood was sampled at specified time intervals and the change in the concentration of the drug in the blood was determined over time.
Availability: Relative value with the availability upon subcutaneous

[3] = absorption by the alimentary tract (duodenum); type: in vivo, rats; conditions: route not given; relative to subcutaneous injection = 100%
Protocol: Rats were incised in the abdomen and a silicone rubber tube was passed through the alimentary tract from the stomach wall to the duodenum, followed by suturing of the stomach wall, peritoneum and skin through which the tube penetrated. […] As in (1), blood was sampled at specified time intervals and the concentration of the drug in the blood was determined.

In the case of “calcitonin: peptide drug of low absorbability through the mucous membrane”, the “Availability, rectum” value [1] is reported as 22-23% and the “Availability, nasal cavity” value [2] is reported as 50%.

With “erythropoietin: macromolecular peptide drug” the “availability values (macromolecular peptides such as erythropoietin)” value [3] was 2-3%.
